Laboratory results as given in patent US20040259196A1, “T cell receptor variants expressed in mesenchymal cells and uses thereof” (priority 2001, published 2004).

What was measured:
[1] = tested on: anti-peptide SEQ ID NO:37 antibody; test: Competition of antibody binding by pre-incubation with the immunizing peptide; parameters: species or system rabbit; conditions: pre-incubation of purified immune serum with soluble peptide, 30 min, room temperature
Excerpt: FIGS. 2A-2F show flow cytometric analysis of J^intJ-Cβ2 expression by mesenchymal cells. Mouse embryonic fibroblasts (MEF) (2E) and different MBA-13 cell strains (1-3; 2A-2C, respectively) were stained with preimmunized (histogram I) or immunized (histogram II) purified antibodies from rabbit serum. The rabbits were immunized with a synthetic segment of SEQ ID NO:2, namely SEQ ID NO:37, with the sequence LAEPRGFVCGVE. As a second antibody, we used Fab FITC conjugated donkey anti-rabbit IgG. Staining with second antibody only gave a histogram shown in histogram III. Cells stained with rabbit polyclonal antibodies to irrelevant peptide 1121 of the sequence RGGGGGRGGLHD, similarly produced and purified, served as negative control (histogram IV). Competition of antibody binding was performed by pre-incubation of the purified immune serum with the specific immunizing peptide SEQ ID NO:37 for 30 min at room temperature (2D, histogram). Competition with irrelevant peptide 1121 served as negative control (data not shown). The results of one experiment, out of three performed, are shown.
This strongly supports the conclusion that J^int-Jβ2.6-C protein is present on the surface of the MBA-13 cells. It is noteworthy that thymocytes do express J^int-Jβ2.6-C on the mRNA level but are not reactive with the antibody (FIGS. 2F and 3). […]

[2] = molecular target: J^int-Jβ2.6-C protein (truncated mesenchymal TCRβ lacking the V region) (mouse); test: flow cytometry on MBA-13 cells
293T cells = test: Cell cycle flow cytometric analysis of transfected 293T cells; format: cell-based, human; conditions: 293T cells co-transfected with pTα
Excerpt: FIG. 13 Recombinant mesenchymal TCRβ (GFP-J^int-Jβ2.6-C) in a preTCR-like complex causes apoptotic cell death upon overexpression. (A) Immunofluorescence analysis of cells transfected with cDNA constructs encoding a fusion protein of J^int-Jβ2.6-C linked to GFP, together with pTα HA vector. (B) Western blot analysis of extracts from 293T cells transfected with GFP-J^int-Jβ2.6-C together with HA-pTα (lane 1). Control GFP and HA vectors (lane 2), GFP vector and HA-pTα0 (lane 3), HA vector and GFP-J^int-Jβ2.6-C (lane 4) and untransfected cells (lane 5). Immunoblotting was performed with an anti-GFP monoclonal antibody. The position of the fusion protein, GFP-J^int-Jβ2.6-C is indicated (GFP-J^int) as is the position of GFP free protein (GFP). (C) Cell cycle flow cytometric analysis of 293T cells transfected with the indicated vectors. The cell cycle analysis of GFP negative cells that were treated with GFP-J^int-Jβ2.6-C and pTα but remained untransfected (C-I) serves as a representative control; similar patterns were observed following transfection with empty vectors or separately with GFP-J^int-Jβ2.6-C and pTα. […]
Next, we examined the results of overexpression of J^int-Jβ2.6-Cβ. A cDNA construct encoding a fusion protein of J^int-Jβ2.6-C N-terminally linked to green fluorescence protein (GFP) was transfected along with pTα into human 293T cells (FIG. 13). […]

## LAEPRGFVCGVE (listed as Mus musculus) [immunizing peptide]
[1]
  competition of antiserum staining of MBA-13 cells: reduced the ability of the antiserum to stain the cells

## hamster anti-mouse TCRβ monoclonal antibody, clone H57-597
[2]
  percent of the cell population stained: 34%

B1: GFP-J^int-Jβ2.6-Cβ: fusion protein of J^int-Jβ2.6-C N-terminally linked to green fluorescence protein (GFP), expressed from a cDNA construct (protein)
chain: MGEYLAEPRGFVCGVEPLCSYEQYFGPGTRLTVLEDLRNVTPPKVSLFEPSKAEIANKQKATLVCLARGFFPDHVELSWWVNGKEVHSGVSTDPQAYKESNYSYCLSSRLRVSATFWHNPRNHFRCQVQFHGLSEEDKWPEGSPKPVTQNISAEAWGRADCGITSASYHQGVLSATILYEILLGKATLYAVLVSGLVLMAMVKKKNS
modifications: left off: large carriers
notes: fusion protein of J^int-Jβ2.6-C N-terminally linked to green fluorescence protein (GFP), expressed from a cDNA construct
293T cells
  shift of the population to sub-G1, indicating massive apoptosis: 59%
